Experiment [1] concerns the target human glucagon receptor (glucagon-R) (human, UniProt P47871). The experiment in a line: cell-based or functional assay.
The target of experiment [2] is human glucagon-like peptide 1 receptor (GLP-1R) (human, UniProt P43220). The experiment in a line: cell-based or functional assay.

Starred links: 1 amine or outer side, 2 acyl side, 3 side chain; linkers in the order of their positions; H or OH if unused. Non-standard residues stand in square brackets, D forms with d. Groups on a side chain read outwards from the residue. *: point of attachment. γGlu = O=C(O)[C@H](CCC(=O)[*:2])N[*:1]; Palmitoyl = CCCCCCCCCCCCCCCC(=O)*; Aib = CC(C)(N)C(=O)O

B1: Compound 19 (peptide)
peptide: H-H[Aib]IGTFTSDYSKYLDSK([γGlu-Palmitoyl])AAHDFVEWLLSA-NH2
SMILES: CCCCCCCCCCCCCCCC(=O)N[C@@H](CCC(=O)NCCCC[C@H](NC(=O)[C@H](CO)NC(=O)[C@H](CC(=O)O)NC(=O)[C@H](CC(C)C)NC(=O)[C@H](Cc1ccc(O)cc1)NC(=O)[C@H](CCCCN)NC(=O)[C@H](CO)NC(=O)[C@H](Cc1ccc(O)cc1)NC(=O)[C@H](CC(=O)O)NC(=O)[C@H](CO)NC(=O)[C@@H](NC(=O)[C@H](Cc1ccccc1)NC(=O)[C@@H](NC(=O)CNC(=O)[C@@H](NC(=O)C(C)(C)NC(=O)[C@@H](N)Cc1c[nH]cn1)[C@@H](C)CC)[C@@H](C)O)[C@@H](C)O)C(=O)N[C@@H](C)C(=O)N[C@@H](C)C(=O)N[C@@H](Cc1c[nH]cn1)C(=O)N[C@@H](CC(=O)O)C(=O)N[C@@H](Cc1ccccc1)C(=O)N[C@H](C(=O)N[C@@H](CCC(=O)O)C(=O)N[C@@H](Cc1c[nH]c2ccccc12)C(=O)N[C@@H](CC(C)C)C(=O)N[C@@H](CC(C)C)C(=O)N[C@@H](CO)C(=O)N[C@@H](C)C(N)=O)C(C)C)C(=O)O
On to B1, for which, in experiment [1], the “EC50 (nM) GluR, cAMP formation” value was 0.74 nM and the “EC50 (nM) GluR, cAMP formation, earlier determination” value turned out to be 3 nM. Further, in experiment [2], the “EC50 (nM) GLP-1R, cAMP formation” value was determined as 0.16 nM.

B2: Compound 18 (peptide)
peptide: H-H[Aib]SGTFTSDYSKYLDSK([γGlu-Palmitoyl])AAHDFVEWLLSA-NH2
SMILES: CCCCCCCCCCCCCCCC(=O)N[C@@H](CCC(=O)NCCCC[C@H](NC(=O)[C@H](CO)NC(=O)[C@H](CC(=O)O)NC(=O)[C@H](CC(C)C)NC(=O)[C@H](Cc1ccc(O)cc1)NC(=O)[C@H](CCCCN)NC(=O)[C@H](CO)NC(=O)[C@H](Cc1ccc(O)cc1)NC(=O)[C@H](CC(=O)O)NC(=O)[C@H](CO)NC(=O)[C@@H](NC(=O)[C@H](Cc1ccccc1)NC(=O)[C@@H](NC(=O)CNC(=O)[C@H](CO)NC(=O)C(C)(C)NC(=O)[C@@H](N)Cc1c[nH]cn1)[C@@H](C)O)[C@@H](C)O)C(=O)N[C@@H](C)C(=O)N[C@@H](C)C(=O)N[C@@H](Cc1c[nH]cn1)C(=O)N[C@@H](CC(=O)O)C(=O)N[C@@H](Cc1ccccc1)C(=O)N[C@H](C(=O)N[C@@H](CCC(=O)O)C(=O)N[C@@H](Cc1c[nH]c2ccccc12)C(=O)N[C@@H](CC(C)C)C(=O)N[C@@H](CC(C)C)C(=O)N[C@@H](CO)C(=O)N[C@@H](C)C(N)=O)C(C)C)C(=O)O
As to B2, in experiment [1], the “EC50 (nM) GluR, cAMP formation” value was determined as 8 nM. Moreover, in experiment [2], the “EC50 (nM) GLP-1R, cAMP formation” value turned out to be 0.09 nM.

B3: Compound 20 (peptide)
peptide: H-H[Aib]GGTFTSDYSKYLDSK([γGlu-Palmitoyl])AAHDFVEWLLSA-NH2
SMILES: CCCCCCCCCCCCCCCC(=O)N[C@@H](CCC(=O)NCCCC[C@H](NC(=O)[C@H](CO)NC(=O)[C@H](CC(=O)O)NC(=O)[C@H](CC(C)C)NC(=O)[C@H](Cc1ccc(O)cc1)NC(=O)[C@H](CCCCN)NC(=O)[C@H](CO)NC(=O)[C@H](Cc1ccc(O)cc1)NC(=O)[C@H](CC(=O)O)NC(=O)[C@H](CO)NC(=O)[C@@H](NC(=O)[C@H](Cc1ccccc1)NC(=O)[C@@H](NC(=O)CNC(=O)CNC(=O)C(C)(C)NC(=O)[C@@H](N)Cc1c[nH]cn1)[C@@H](C)O)[C@@H](C)O)C(=O)N[C@@H](C)C(=O)N[C@@H](C)C(=O)N[C@@H](Cc1c[nH]cn1)C(=O)N[C@@H](CC(=O)O)C(=O)N[C@@H](Cc1ccccc1)C(=O)N[C@H](C(=O)N[C@@H](CCC(=O)O)C(=O)N[C@@H](Cc1c[nH]c2ccccc12)C(=O)N[C@@H](CC(C)C)C(=O)N[C@@H](CC(C)C)C(=O)N[C@@H](CO)C(=O)N[C@@H](C)C(N)=O)C(C)C)C(=O)O
In the case of B3, the “EC50 (nM) GluR, cAMP formation” value in experiment [1] came out at 26 nM. In addition, in experiment [2], the “EC50 (nM) GLP-1R, cAMP formation” value came out at 0.21 nM and the “EC50 (nM) GLP-1R, cAMP formation, earlier determination” value stood at 0.89 nM.

(Values after patent US20130157929A1, “GLUCAGON ANALOGUES” (ZEALAND PHARMA A/S, published 2013).)
